Consider three molecules from article PMC3183090, “A Noncoding Point Mutation of Zeb1 Causes Multiple Developmental Malformations and Obesity in Twirler Mice”.

In data set [1] the target is T1, C-Myb (mouse, UniProt P06876 1-636). In words: competition; unlabeled, 25- or 50-fold molar excess vs labeled N1; complete inhibition; 20 ul reactions with EMSA Accessory Kit (Novagen), 6% DNA retardation gel; buffer composition, salt, pH and temperature not stated. The conditions noted are these: protein: recombinant; tags: pET-41a(+) vector tags (Ni-NTA purified); 5' overhang 1 nt on strand 1 as printed (S6 lacks the 3' C). (In general: A gel shift assay detects complexes by their altered migration in electrophoresis.)
T1 sequence (P06876 whole entry): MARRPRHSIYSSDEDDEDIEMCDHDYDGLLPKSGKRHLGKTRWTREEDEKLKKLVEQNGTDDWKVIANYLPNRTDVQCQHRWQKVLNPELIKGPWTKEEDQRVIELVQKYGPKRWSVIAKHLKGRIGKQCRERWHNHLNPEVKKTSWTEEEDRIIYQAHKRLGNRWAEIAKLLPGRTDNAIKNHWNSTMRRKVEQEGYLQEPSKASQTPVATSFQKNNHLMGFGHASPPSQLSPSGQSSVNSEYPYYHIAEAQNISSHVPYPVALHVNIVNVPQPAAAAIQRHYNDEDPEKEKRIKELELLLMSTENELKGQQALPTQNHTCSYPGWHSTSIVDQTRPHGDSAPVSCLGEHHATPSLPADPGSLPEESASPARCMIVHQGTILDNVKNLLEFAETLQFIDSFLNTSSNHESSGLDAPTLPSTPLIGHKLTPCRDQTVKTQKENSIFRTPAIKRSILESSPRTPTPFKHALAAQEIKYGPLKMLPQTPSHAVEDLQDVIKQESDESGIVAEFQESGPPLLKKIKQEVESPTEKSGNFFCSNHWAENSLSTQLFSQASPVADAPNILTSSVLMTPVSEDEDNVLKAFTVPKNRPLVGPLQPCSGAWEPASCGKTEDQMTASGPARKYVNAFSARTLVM

Data set [2] addresses T1, C-Myb. The experiment in a line: EMSA; 20 ul reactions with EMSA Accessory Kit (Novagen), 6% DNA retardation gel; buffer composition, salt, pH and temperature not stated. As to conditions: protein: recombinant; tags: pET-41a(+) vector tags (Ni-NTA purified); blunt.

B1: mim-1 C-Myb site control (dsDNA)
DNA 1: GCTCTAAAAAACCGTTATAATGTACAGATATCTT
DNA 2: AAGATATCTGTACATTATAACGGTTTTTTAGAG
Regarding B1, in the data set with C-Myb [1], the binding result was “binds”.

B2: Zeb1 c.58+181G (wild type) probe (dsDNA)
DNA 1: TGCTGGACTGGACCGTTATGTCTTACCTGC
DNA 2: GCAGGTAAGACATAACGGTCCAGTCCAGCA
Consider B2, for which, in the data set with C-Myb [2], the binding result was “binds”.

B3: Zeb1 c.58+181A (Twirler) probe (dsDNA)
DNA 1: TGCTGGACTGGACCATTATGTCTTACCTGC
DNA 2: GCAGGTAAGACATAATGGTCCAGTCCAGCA
On to B3, for which, in the data set with C-Myb [2], the binding result is “no binding”.
